These results are taken from PMC10457330, “Structural basis for the allosteric modulation of rhodopsin by nanobody binding to its extracellular domain” (Nature Communications, 2023).

Test [1] deals with ground-state bovine rhodopsin (native, from rod outer segments) (bovine, UniProt P02699, 11-cis-retinylidene chromophore (Schiff base at Lys296); N-linked glycans at Asn2 and Asn15).
In test [2] the target is photoactivated bovine rhodopsin (Bos taurus (native, rod outer segments), UniProt P02699, all-trans-retinylidene chromophore after photoisomerization; N-linked glycans at Asn2 and Asn15).
photoactivated bovine rhodopsin, sequence (P02699 whole entry): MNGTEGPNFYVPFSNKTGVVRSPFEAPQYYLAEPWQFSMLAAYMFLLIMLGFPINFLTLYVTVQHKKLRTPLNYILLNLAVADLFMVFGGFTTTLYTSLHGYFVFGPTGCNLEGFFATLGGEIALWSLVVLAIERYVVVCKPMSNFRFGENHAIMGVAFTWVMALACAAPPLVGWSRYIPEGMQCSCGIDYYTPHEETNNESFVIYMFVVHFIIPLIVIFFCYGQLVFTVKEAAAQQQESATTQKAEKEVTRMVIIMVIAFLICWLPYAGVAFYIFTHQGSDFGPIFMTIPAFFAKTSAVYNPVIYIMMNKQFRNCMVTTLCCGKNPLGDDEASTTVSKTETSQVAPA

ground-state bovine rhodopsin (native, from rod outer segments), sequence (P02699 whole entry): as above

B1: Nb22 (VHH)
VHH: QVQLVESGGGLVQAGGSLRLSCTASGNSFTFYTMGWYRQAPGKQRELVASITHRDSTNYADSMKDRFTISRDNSKNTVYLQMNSLKAEDTAVYYCNLHGRTRLLGREYDYWGQGTQVTVSS
For the molecule B1, the binding result in test [1] and in test [2] was “binds” throughout.

B2: Nb12 (VHH)
VHH: QVQLVESGGGLVQPGGSLRLSCAASGFTFNRYVMNWVRQAPGKGLEWVSGISRDGSYTDYADSVKGRFTISRDNAKDTLYLQMNSLKPEDTAVYYCSKYNSVVTTPPGQGTQVTVSS
Turning to B2, the binding result in test [1] and in test [2] was “binds” each time.
